From patent US20070135335

Test system: Beacon (recombinant, expressed as GST-Beacon in E. coli, GST tag cleaved off with thrombin)

Sequence of GST-CLK2 (recombinant human CLK2 fused to glutathione S-transferase, pGEX4T-1) (chain, as listed by the source): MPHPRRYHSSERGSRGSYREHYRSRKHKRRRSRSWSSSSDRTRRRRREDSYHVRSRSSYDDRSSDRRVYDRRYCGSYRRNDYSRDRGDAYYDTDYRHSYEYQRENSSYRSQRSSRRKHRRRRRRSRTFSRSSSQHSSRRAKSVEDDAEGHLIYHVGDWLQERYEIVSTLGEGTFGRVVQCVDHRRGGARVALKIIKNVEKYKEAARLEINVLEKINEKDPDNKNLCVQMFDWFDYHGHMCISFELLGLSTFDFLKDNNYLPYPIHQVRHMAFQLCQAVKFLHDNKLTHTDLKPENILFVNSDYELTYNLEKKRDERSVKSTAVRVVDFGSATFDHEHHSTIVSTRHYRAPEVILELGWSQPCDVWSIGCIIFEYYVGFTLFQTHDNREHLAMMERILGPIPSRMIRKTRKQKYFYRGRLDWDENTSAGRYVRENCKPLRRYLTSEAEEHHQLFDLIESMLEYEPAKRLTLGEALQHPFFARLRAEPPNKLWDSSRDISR
Sequence of GST-CLK1 (recombinant human CLK1 fused to glutathione S-transferase, pGEX4T-1) (chain, as listed by the source): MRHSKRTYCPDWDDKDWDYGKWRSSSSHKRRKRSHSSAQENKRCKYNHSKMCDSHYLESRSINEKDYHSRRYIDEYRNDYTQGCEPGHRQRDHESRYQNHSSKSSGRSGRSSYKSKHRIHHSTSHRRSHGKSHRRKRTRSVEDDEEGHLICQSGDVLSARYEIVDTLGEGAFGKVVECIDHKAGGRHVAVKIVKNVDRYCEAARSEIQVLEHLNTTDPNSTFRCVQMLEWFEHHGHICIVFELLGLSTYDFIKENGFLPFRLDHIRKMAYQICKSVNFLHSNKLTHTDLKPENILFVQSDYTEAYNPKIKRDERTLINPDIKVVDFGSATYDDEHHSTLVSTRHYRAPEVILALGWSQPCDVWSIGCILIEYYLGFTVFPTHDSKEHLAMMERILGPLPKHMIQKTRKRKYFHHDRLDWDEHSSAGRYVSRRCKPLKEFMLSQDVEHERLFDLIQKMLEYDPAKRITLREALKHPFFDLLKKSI
Sequence of GST-CLK4 (recombinant human CLK4 fused to glutathione S-transferase, pGEX4T-1) (chain, as listed by the source): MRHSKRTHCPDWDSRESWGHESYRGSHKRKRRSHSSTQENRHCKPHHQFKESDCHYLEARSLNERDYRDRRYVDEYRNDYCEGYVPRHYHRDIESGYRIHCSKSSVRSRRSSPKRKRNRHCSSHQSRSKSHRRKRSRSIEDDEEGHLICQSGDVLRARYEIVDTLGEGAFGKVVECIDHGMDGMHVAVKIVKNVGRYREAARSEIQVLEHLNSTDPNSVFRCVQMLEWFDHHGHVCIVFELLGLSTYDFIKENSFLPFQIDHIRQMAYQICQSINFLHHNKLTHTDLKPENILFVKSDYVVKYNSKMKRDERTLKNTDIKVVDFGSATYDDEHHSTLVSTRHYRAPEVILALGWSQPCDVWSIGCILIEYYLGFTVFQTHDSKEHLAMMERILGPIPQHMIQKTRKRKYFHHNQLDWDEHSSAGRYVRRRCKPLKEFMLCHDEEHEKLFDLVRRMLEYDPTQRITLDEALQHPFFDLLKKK

Row | Substance | phosphorylation of Beacon in kinase assay with [gamma-32P]-ATP
1 | GST-CLK4 (recombinant human CLK4 fused to glutathione S-transferase, pGEX4T-1) | Beacon was not phosphorylated by any of the CLKs
2 | GST-CLK1 (recombinant human CLK1 fused to glutathione S-transferase, pGEX4T-1) | Beacon was not phosphorylated by any of the CLKs
3 | GST-CLK2 (recombinant human CLK2 fused to glutathione S-transferase, pGEX4T-1) | Beacon was not phosphorylated by any of the CLKs
